From US20260049105A1, “SELECTIVE MC4R LIGAND FOR TREATING OBESITY AND COGNITIVE LOSS” (ARIZONA BOARD OF REGENTS ON BEHALF OF THE UNIVERSITY OF …, priority 2022, published 2026)

Biological target: human melanocortin 4 receptor (human), P32245
Test: competition with 125I-NDP-α-MSH on whole HEK293 cells expressing hMC4R
Conditions: remark: other sources report otherwise

Sequence of human melanocortin 4 receptor (human), P32245 (P32245 whole entry): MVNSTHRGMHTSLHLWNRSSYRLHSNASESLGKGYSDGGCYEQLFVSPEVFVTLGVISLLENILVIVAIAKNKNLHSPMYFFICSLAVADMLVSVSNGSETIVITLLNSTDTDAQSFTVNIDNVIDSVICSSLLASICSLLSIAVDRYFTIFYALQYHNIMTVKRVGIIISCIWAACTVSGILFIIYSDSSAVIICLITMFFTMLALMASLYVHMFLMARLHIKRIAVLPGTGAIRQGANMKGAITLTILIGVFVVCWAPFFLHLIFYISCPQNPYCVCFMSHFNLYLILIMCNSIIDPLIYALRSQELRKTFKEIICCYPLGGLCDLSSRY

B1: Ac-Arg-cyclo[Asp-Pip-D-Phe(4-F)-βArg-Trp-Lys]-NH2 (peptide)
peptide: RDXFRWK
modifications: not fully specified; here or on the partner: N-terminal acetyl (Ac); C-terminal amide (NH2); cyclized through the side chains of Asp2 and Lys7; Pip at 3; D-Phe(4-F) at 4; βArg at 5
Question: How did the BE% (percent [125I]NDP-α-MSH displacement at 10 µM) turn out when B1 was run?
Answer: 23%
